Laboratory results taken from US20240327530A1 (ICHNOS SCIENCES, published 2024).
Values belong to the binder of their own block, whether it stands above or below them.

Assays:
[1] = biological target: T1, Recombinant human IL-1RAP Fc fusion protein (Acrobiosystems, catalog no. ILP-H5256) (human, UniProt Q9NPH3 21-359, limits assumed); experiment: SPR, human IL-1RAP-Fc captured, Fab as analyte, 1:1 fit
T1 construct: Bought; not shown: Fc part of the bought fusion protein
T1 sequence: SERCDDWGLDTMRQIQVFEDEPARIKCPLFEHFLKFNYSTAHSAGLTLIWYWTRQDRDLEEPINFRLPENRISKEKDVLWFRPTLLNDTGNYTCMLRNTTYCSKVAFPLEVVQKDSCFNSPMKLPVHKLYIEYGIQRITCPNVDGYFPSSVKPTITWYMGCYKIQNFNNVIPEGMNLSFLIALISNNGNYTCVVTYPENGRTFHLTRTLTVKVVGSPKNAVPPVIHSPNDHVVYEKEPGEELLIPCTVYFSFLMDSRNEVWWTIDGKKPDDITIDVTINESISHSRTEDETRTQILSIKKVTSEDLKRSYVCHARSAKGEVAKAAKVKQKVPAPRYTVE
Procedure: (§1) Surface plasmon resonance (SPR) was used to measure the binding affinities of the Fab fragments for human, cynomolgus monkey and/or mouse IL-1RAP. Affinities were measured on a BIACORE™ T200 instrument (BIACORE™, GE […]®) at 25° C. and analyzed with the BIACORE™ T200 Evaluation Software (v3.1). Measurements were performed on Series S CM5 sensor chips (BIACORE™ T200, BIACORE™, GE […]®, catalog no. BR100530) coupled with anti-human IgG Fc (BIACORE™, GE […]®, catalog no. BR100839) using a commercial amine coupling kit (BIACORE™, GE […]®, catalog no. BR100050) or on Series S BiotinCAPture chips (BIACORE™, GE […]®, catalog no. 28920234). SPR measurements were performed with commercially available recombinant human IL-1RAP Fc fusion protein (Acrobiosystems, catalog no. ILP-H5256) and recombinant mouse IL-1RAP Fc fusion protein (Sino Biologicals, catalog no. 52657-M02H) or with biotinylated recombinant cynomolgus monkey IL-1RAP-avi-his protein produced in-house (SEQ ID NO. 2).
(§2) The affinities to human, cynomolgus monkey and mouse IL-1RAP were assessed by immobilizing IL-1RAP and using Fab fragments as analyte. Around 100 RU of human or mouse IL-1RAP Fc fusion protein were captured on fc2 of a Series S CM5 sensor chip coupled with anti-human IgG Fc and around 150 RU of biotinylated cynomolgus monkey IL-1RAP protein were captured on fc2 of a Series S BiotinCAPture chip. Fab fragments were injected in single cycle kinetic at different concentrations ranging from 7.8 to 500 nM, in HBS-EP+ buffer (BIACORE™, GE […]®, catalog no. BR100669) at a flow rate of 30 μl/min for 3 min on fc1 and fc2 (fc1 being used as reference). Dissociation was monitored for 5 min. After each cycle, the surface was regenerated with 60 μl of regeneration solution provided with anti-human IgG Fc capture kit (BIACORE™, GE […]®, catalog no. BR100839) or BiotinCAPture kit (BIACORE™, GE […]®, catalog no. 28920234) respectively. Experimental data were processed using the 1:1 Langmuir kinetic fitting model. Measurements included zero-concentration samples for referencing. Chi², U- and residual values were used to evaluate the quality of a fit between the experimental data and individual binding models.

[2] = biological target: T2, Recombinant cynomolgus monkey IL-1RAP-ECD(S21-E359)-avi-his protein (cynomolgus monkey, UniProt P59822 21-359 (rhesus entry)); experiment: SPR, biotinylated cyno IL-1RAP-avi-his captured, Fab as analyte
T2 construct: also called cyno IL-1RAP-ECD-Avi-His; recombinant cynomolgus monkey IL-1RAP-avi-his protein
T2 sequence: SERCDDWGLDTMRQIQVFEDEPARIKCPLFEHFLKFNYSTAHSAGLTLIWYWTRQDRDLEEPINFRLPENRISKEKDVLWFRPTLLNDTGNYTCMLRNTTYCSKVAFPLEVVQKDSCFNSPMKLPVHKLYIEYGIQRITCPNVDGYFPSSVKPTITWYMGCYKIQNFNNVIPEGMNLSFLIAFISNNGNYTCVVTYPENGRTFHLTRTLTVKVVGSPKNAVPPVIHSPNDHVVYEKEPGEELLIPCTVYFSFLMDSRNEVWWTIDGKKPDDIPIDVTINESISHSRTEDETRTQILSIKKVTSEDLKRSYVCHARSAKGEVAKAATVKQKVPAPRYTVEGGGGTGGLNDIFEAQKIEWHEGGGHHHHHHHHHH
Procedure: as §1
(§3) The affinities to human, cynomolgus monkey and mouse IL-1RAP were assessed by immobilizing IL-1RAP and using Fab fragments as analyte. […] Dissociation was monitored for 5 min. […]

[3] = biological target: T3, Recombinant mouse IL-1RAP Fc fusion protein (Sino Biologicals, catalog no. 52657-M02H) (mouse, UniProt Q61730 21-350); experiment: SPR, mouse IL-1RAP-Fc captured, Fab as analyte
T3 construct: Bought; not shown: Fc part of the bought fusion protein
T3 sequence: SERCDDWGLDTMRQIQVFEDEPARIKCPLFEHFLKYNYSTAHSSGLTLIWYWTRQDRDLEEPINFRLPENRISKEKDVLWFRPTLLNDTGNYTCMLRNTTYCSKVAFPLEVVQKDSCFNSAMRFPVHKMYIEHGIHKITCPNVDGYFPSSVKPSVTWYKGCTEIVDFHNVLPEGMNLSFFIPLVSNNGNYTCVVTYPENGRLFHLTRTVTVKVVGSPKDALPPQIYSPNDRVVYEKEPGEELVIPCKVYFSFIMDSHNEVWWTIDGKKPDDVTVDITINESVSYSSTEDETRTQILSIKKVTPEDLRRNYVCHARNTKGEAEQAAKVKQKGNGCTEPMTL
Procedure: as §1, §2

[4] = biological target: T4, gg-hs-hs IL-1RAP; experiment: SPR, IgG1 LALA captured on anti-human IgG Fc CM5 chip, chimera injected at 50 nM
T4 construct: chicken/human IL-1RAP chimera; also called IL-1RAP-ECD(ggD1(S139-P246)-hsD2(V132-V233)-hsD3(V234-E359))-Avi-His; gg-hs-hs-IL-1RAP-ECD-avi-his
T4 single chain: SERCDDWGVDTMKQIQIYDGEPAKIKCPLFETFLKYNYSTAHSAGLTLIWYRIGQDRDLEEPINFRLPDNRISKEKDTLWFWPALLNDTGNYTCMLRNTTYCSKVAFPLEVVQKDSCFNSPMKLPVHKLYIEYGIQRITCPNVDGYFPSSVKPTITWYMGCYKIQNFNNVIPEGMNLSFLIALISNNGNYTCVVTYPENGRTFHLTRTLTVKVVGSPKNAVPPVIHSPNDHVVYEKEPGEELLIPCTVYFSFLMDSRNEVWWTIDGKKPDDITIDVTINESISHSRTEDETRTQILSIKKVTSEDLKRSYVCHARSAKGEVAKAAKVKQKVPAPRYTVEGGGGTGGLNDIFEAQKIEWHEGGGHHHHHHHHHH
Procedure: Human-chicken IL-1RAP chimeras were injected over immobilized anti-IL-1RAP IgG1 LALA at 50 nM in HBS-EP+ buffer followed by a dissociation in HBS-EP+ buffer. “hs” stands for a human domain and “gg” stands for a chicken domain. Human-chicken chimeras are then described by their respective human or chicken domains in successive order, e.g. hs-gg-gg IL-1RAP stands for IL-1RAP with human domain 1, chicken domain 2 and chicken domain 3. Plots show data expressed as number of resonance units (abbreviated RU; Y axis) vs. time (X axis).
Domain of IL-1RAP targeted by IgG1 LALA clones was identified by SPR binding assay. Around 150 RU of IgG1 LALA was immobilized on the fc2 of a Series S CM5 sensor chip previously coated with anti-human IgG Fc (BIACORE™, GE […]®, catalog no. BR100839) using a commercial amine coupling kit (BIACORE™, GE […]®, catalog no. BR100050). Human IL-1RAP-avi-his, chicken IL-1RAP-avi-his, chimeric protein comprising chicken domain 1 of IL-RAP fused to human domain 2 and 3 of IL-1RAP (gg-hs-hs-IL-1RAP-ECD-avi-his) and chimeric protein comprising chicken domain 1 and 2 of IL-1RAP fused to human domain 3 of IL-1RAP (gg-gg-hs-IL-1RAP-avi-his) were injected individually at 50 nM in HBS-EP+ for 3 min over fc1 and fc2 (fc1 being used as reference), followed by dissociation in HBS-EP+ buffer for 5 min. […]

[5] = biological target: T2, Recombinant cynomolgus monkey …; experiment: SPR, biotinylated cyno IL-1RAP-avi-his captured, Fab as analyte, 1:1 fit
Procedure: as §1, §2

[6] = biological target: T3, Recombinant mouse IL-1RAP Fc fusion …; experiment: SPR, mouse IL-1RAP-Fc captured, Fab as analyte, 1:1 fit
Procedure: as §1, §3

[7] = biological target: T2, Recombinant cynomolgus monkey …; experiment: SPR, Fab as analyte
Procedure: as §1, §3

B2: anti-IL-1RAP-C3 IgG1 LALA (antibody, V domains shown)
VH: EVQLLESGGGLVQPGGSLRLSCAASGFTFRDYAMGWVRQAPGKGLEWVSAISYDGEGTLYADSVKGRFTISRDNSKNTLYLQMNSLRAEDTAVYYCARFRYYTAFDYWGQGTLVTVSS
VL: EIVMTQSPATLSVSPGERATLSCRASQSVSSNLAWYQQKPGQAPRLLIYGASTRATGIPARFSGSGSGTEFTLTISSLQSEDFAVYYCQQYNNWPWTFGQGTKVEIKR
notes: Human IgG1 with L234A/L235A (EU)
- binding result [4]: binds

B3: Anti-IL-1RAP-UCP02-C3-Fab (Fab, V domains shown)
VH: B2 VH
VL: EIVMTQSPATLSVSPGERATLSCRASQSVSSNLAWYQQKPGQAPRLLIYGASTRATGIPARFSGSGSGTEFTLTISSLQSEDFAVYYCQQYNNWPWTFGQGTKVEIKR
notes: also called anti-IL-1RAP-C3; anti-IL-1RAP-C3 Fab
- Kd [5]: 110 nM
- Kd [6]: 0.63 nM
- Kd [1]: 2.8 nM
- fold lower affinity than to human IL-1RAP [7]: ~40 fold

Further binders by falling Kd [1], results first:

- Kd [1]: 311 nM
- binding result [2]: no binding (tested: 7.8 to 500 nM Fab)
- binding result [3]: no binding (tested: 7.8 to 500 nM Fab)
B1: Anti-IL-1RAP-UCP02-B5-Fab (Fab, V domains shown)
VH: QVQLVQSGAEVKKPGSSVKVSCKASGGYFSAYIISWVRQAPGQGLEWMGGIVPQYGYATYAQKFQGRVTITADESTSTAYMELSSLRSEDTAVYYCARGRSTTYYGFAYWGQGTLVTVSS
VL: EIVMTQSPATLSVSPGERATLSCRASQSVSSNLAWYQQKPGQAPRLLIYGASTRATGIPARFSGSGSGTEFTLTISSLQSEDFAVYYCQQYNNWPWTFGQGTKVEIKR

- Kd [6]: 3.54 nM
- Kd [1]: 16 nM
- binding result [2]: no binding (tested: 7.8 to 500 nM Fab)
B4: Anti-IL-1RAP-UCP04-C1-Fab (Fab, V domains shown)
VH: EVQLLESGGGLVQPGGSLRLSCAASGFTFSAYTMSWVRQAPGKGLEWVSAISYEGDGTLYADSVKGRFTISRDNSKNTLYLQMNSLRAEDTAVYYCARSLYWSGFDYWGQGTLVTVSS
VL: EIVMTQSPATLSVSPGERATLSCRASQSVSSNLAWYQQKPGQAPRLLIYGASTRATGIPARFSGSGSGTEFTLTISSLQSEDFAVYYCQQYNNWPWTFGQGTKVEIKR
